Data on one substance can be found in article PMC2829087.

The target of this assay is Myc-GPI-TSHR-ecd (TSH receptor ectodomain, residues 1-412, linked to a GPI anchor, Myc-tagged) (human) (UniProt P16473). Kind of assay: FRET or BRET; sensitized emission FRET on transfected HEK 293 cells fixed with 4% paraformaldehyde; anti-HA FITC (donor) and anti-Myc Cy3 (acceptor), or GFP (donor) and anti-Myc Cy3 (acceptor) for full-length receptors; pFRET software. For orientation: Bioluminescence resonance energy transfer reports proximity on the nanometre scale.

In the case of “HA-GPI-TSHR-ecd (TSH receptor ectodomain, residues 1-412, linked to a GPI anchor, HA-tagged) (from UniProt P16473 21-412) (domain or fragment)”, the FRET efficiency was in the range of 8 to 10%.
